In a protein production outcome set (Wang et al. 2014):

Assay: label from the status in PepcDB records
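Note: failed if final PepcDB status was selected cloned or expressed and not failed if soluble or beyond.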

Sequence	protein production
MREEELNTEKVVAAIANPVENEVRKVWEDVVEKIEQRVAVIEQASHKLLQNKVSEEILSKAKVEAHKLAGSLGMFGSDEGSQIAQEIESLLDNGKKLKASGGKHLGQVVELEHHHHHH	failed
MREGRLGYNSYNKRYGLLSSDLWIDTGFHCGEYLEVLLDDEWVQTRMEMNPAREWYLVGTPYCGDLEYIRARIPE	failed
MREPVDLRRQRILAAVQARGTARVRDLADELQVSVVTVRRDVEELTREGRLSRGHGVVRSTLPARESAPEAVPAAGDRVAVVVPVRHSYLTETLHGARTVLERAGVRMALHLAPQASGAERPLVERALADGADGLLIAPRWRGRADEEADHEWLAGTGVPTVLMERRPWRGSALHALDSVCSDHWYGAHLAVEHLVGLGHRRIVVATRHDSPTARSLRAAFTEIAGAHPLVERWAWTLVAPEAGADGPYSADETAEPPALMRKVGATAMVLHGDVDALMVVQRLAEEGVRVPEDCSVVAYDDVVAGLAAPPLTAVSPPKAEVGHTAAELLLQRLTEAPGGRRPGRRVELLPRLMVRGSTDRSVEPLDE	failed
MRFGSRIEDGTGAPGAGRLARFAAVGGSGVVVNLAVLHVLAQGLGVPEVAASAVAIEASVLSNFLLHDAITFRDRRGGRGRLARLGRYHAVSLVGVAIQLATFAALALLARHALGRPSLGPLRLPAQAAGIALAFAWSWAGSARWAWAGAGAAVRGPEAGARGRALLPAVLFGALVALHVLPIWLVRYFPTQDGPLHVENVLALLHHGASPLLRGYYEANWGAQPNWLTQALLAPLLSIVSPLTAEKLVLSGYTVLLPISFRAVLPRGARGWWAALAVFPFVHAYPFHMGFWNFCYGVALAFLAAGFWLRTRGRLGPGRFAALAVLSLLLYLAHSVAFAGALLFAGAVLGLRAARSLARARRHPARRRRVAAAYARRAAAGLAAAAPGLLLLGAWLLAHRDRVAARIPLPELAAKLAAGYSLVSIDRRELPLAMAVMLVLAVAVVHAALVRAGRGVRLLAHDGWLVAAAAFVLLYFAVPDVVAAGAHVSDRMALLALLCVAAWLGAASAGPGAPARRAAVALAAIAVVALGVRLDKQRQLSAYLEEYASASAAVEEGRVMLPLALSPYGPQDAHGRRMGYRIKPFLHATGWIVAARGGVDLKNSQANTDHCPVRFPAGRNPFHVIAGSLGRMEGVPPCVDLRGARRLGRLDYVLVWGATRELLETPCGAALAADLAARYEPVWLSAPRGMLEIWRPRAAVAVAR	failed
MRFKQNADHIVLTHVFNGGSAESAALCPQDKIIALDGYACTDFAAQWARYHVRAKINIHFFRAGILRQTVLTVQATALEHHHHHH	failed
MRFLAYFGHLNIDVLISVDSIPREGSVNVKDLRPRFGGTAGNFAIVAQKFRIPFDLYSAVGMKTHREYLAMIESMGINTGHVEKFEDESGPICYIATDGKKQVSFMHQGAMAAWAPQLADEYEYVHFSTGPNYLDMAKSIRSKIIFDPSQEIHKYSKDELKKFHEISYMSIFNDHEYRVFREMTGLSSPKVTTIVTNGERGSSLFMDGKKYDFPAIPSSGDTVGAGDSFRAGLYLALYNRRSIEKGMIYGTIIAHHVIDDGIENFSLNMEDLERETENYRRMFTKRS	not failed
MRFLSLVGNSFGCSASGERLVSAARDGDLQEAKALLDYNPRLARYSTFGVRNSPLHYSAAQGHHEIVSLLVESGVDINLRNYRGQTALMQACQHGHWEVVLILILFGANIHRSDYLNGGTALHLAALNGHPRCIRILLSEYIPSVPNCWSLLKNKKTSVAGFDSSVLHEVINRAADGGITPLHVAALNGHIETVQLLLDLGASVTQVTVEDGTTIDLIGAGSTALHYASCGGNTQCCQLLISKGACLAAVNSNGWTPMMVARSWHRNWLEEILNPTTEQPQLHLPNVPSPFLCLPLMSIVNIAQECGWRENDCLTPCRDPCAVCLERKCTVAADGCAHEFCTNCALYLSTTSITSSKTSNVTPGSVPCPLCRNGIVSFTKLPHTTATTRTSTSSRTSISLSFCTCSSDVLDTALLTNPHYSCKPVVSRTGSRTPQSARSSAFRSLSCRRFPPSLCLGGSDVDEPRSRLIGGSYSRSGVGFRRSTSQVEGKRSWFSALNHCVTTGGSAC	failed
MRFSFLPIVILMMPILEIAGFIIVGKAIGLWLTLALILFTSFLGLLILRLGGVGMVRNLQAAGRTGAQPADELVNGAMRVVAGILLIIPGFITDILGLLLLSPAIRRFFWKAFGPRVVVSGSFRQSGPQQGDYSGFRNGPGPAGNSKVVDLDEEEFHREGSKDSPWSNRPDDRDLPKP	failed
MRGCNKETGEFLGPSRSQQRRTALEVLVLSEKLAALTPAQLAKLPIPERLLPHITETKRITSHIARKRQLAFLAKQMRREDDTTLEAIREKLNASGIQAQREVATLHRTEQWRKRLLEEGDSALTELLNQYPQADCGKLRQLLRNSKTEQARNKAPQAFRELYQVLHGLIITQ	not failed
MRGDKFTLRDSLCLKVDGGRGVCLKGDGGRGVCLKGDGGRGVCLKGDSCDFNHSYTLPRREEVEKHQIELFKEEILSYMRKWISPHEFLQKVLDFNLKSLLVDLAATFNVRYPERQRLLV	failed
MRGKHIFIITALISILMLAACGQKNSSATVATATDSTITKSDFEKQLKDRYGKDMLYEMIAQDVITKKYKVSDDDVDKEVQKAKSQYGDQFKNVLKNNGLKDEADFKNQIKFKLSMNKAIKQSVTEKDVKDHYKPEIKASHILVSDENEAKEIKKKLDTGASFEELAKQESQDLLSKEKGGDLGYFHSGAMTPEFETAAYKLKIGQISDPVQSPNGYHIIKLTGKKDLKPYDEVKNSIRKNLEEERTADPIFGKKLLQSELKKANIKINDSELEDTFTIVSPQGN	failed
MRGKKRIGLLFLLIAVVVGGGGLLLAQKVLHKTSDTAFCLSCHSMSKPFEEYQGTVHFSNQKGIRAECADCHIPKSGMDYLFAKLKASKDIYHEFVSGKIDSDDKFEAHRQEMAETVWKELKATDSATCRSCHSFDAMDIASQSESAQKMHNKAQKDSETCIDCHKGIAHFPPEIKMDDNAAHELESQAATSVTNGAHIYPFKTSHIGELATVNPGTDLTVVDASGKQPIVLLQGYQMQGSENTLYLAAGQRLALATLSEEGIKALTVNGEWQADEYGNQWRQASLQGALTDPALADRKPLWQYAEKLDDTYCAGCHAPIAADHYTVNAWPSIAKGMGARTSMSENELDILTRYFQYNAKDITEKQ	failed
MRGLAVLVLLVFAVQVAAAEDFRPVVFVHGLAGSAGQFESQGMRFAANGYPAEYVKTFEYDTISWALVVETDMLFSGLGSEFGLNISQIIDPETLDKILSKSRERLIDETFSRLDRVIDEALAESGADKVDLVGHSMGTFFLVRYVNSSPERAAKVAHLILLDGVWGVDAPEGIPTLAVFGNPKALPALGLPEEKVVYNATNVYFNNMTHVQLCTSPETFAVMFEFINGYKPATTDIVPQDGDYVKVKGKFLAFATNGDVSGWLSIYPIDENGKRLTRLPVKFMRVKGDFEVRLRKGQLYEFQFRKDFSPIIYHYYRAPFVRDDLWARFLVSKPPLDVELLILPERLSPAAKETSGLLLIRYKEMIGEYDEEIGGVDEVYVNGVNVCTERICPIERAVNGLWVFDRGADGKSDLDREVVRYSIMPFMSAADLVVPAEGTISIAVKSRTGGEESFTIPAWSADRHSIIVQFSDYI	failed
MRGLKTFSILGLIVALLLVAACGNTDNSSKKESSTKDTISVKDENGTVKVPKDAKRIVVLEYSFADALAALDVKPVGIADDGKKKRIIKPVREKIGDYTSVGTRKQPNLEEISKLKPDLIIADSSRHKGINKELNKIAPTLSLKSFDGDYKQNINSFKTIAKALNKEKEGEKRLAEHDKLINKYKDEIKFDRNQKVLPAVVAKAGLLAHPNYSYVGQFLNELGFKNALSDDVTKGLSKYLKGPYLQLDTEHLADLNPERMIIMTDHAKKDSAEFKKLQEDATWKKLNAVKNNRVDIVDRDVWARSRGLISSEEMAKELVELSKKEQK	failed
MRGLSRRVQAMKPSATVAVNAKALELRRQGVDLVALTAGEPDFDTPEHVKEAARRALAQGKTKYAPPAGIPELREALAEKFRRENGLSVTPEETIVTVGGKQALFNLFQAILDPGDEVIVLSPYWVSYPEMVRFAGGVVVEVETLPEEGFVPDPERVRRAITPRTKALVVNSPNNPTGAVYPKEVLEALARLAVEHDFYLVSDEIYEHLLYEGEHFSPGRVAPEHTLTVNGAAKAFAMTGWRIGYACGPKEVIKAMASVSSQSTTSPDTIAQWATLEALTNQEASRAFVEMAREAYRRRRDLLLEGLTALGLKAVRPSGAFYVLMDTSPIAPDEVRAAERLLEAGVAVVPGTDFAAFGHVRLSYATSEENLRKALERFARVLGRA	not failed
MRGPAEQPPVTAISADATDADAAWRIMEQTRPDVVIMNAGAEPPMERIDRIGWEAFTTNWNVDVKAALHWVQAALTVPMAPGGLVVLISSGAAVQGSPLSGGYAGAKRAQWFIAKYADGLSAELGLGLRFRVLVPRQMFVGTGVGDTGIGAYAAKAGRTFAEQAATWPNMTPRAFGDTVAELIGKSGLAEAMVYAVRGDTGVTVIE	failed
MRGPAVLLTVALATLLAPGAGAPVQSQGSQNKLLLVSFDGFRWNYDQDVDTPNLDAMARDGVKARYMTPAFVTMTSPCHFTLVTGKYIENHGVVHNMYYNTTSKVKLPYHATLGIQRWWDNGSVPIWITAQRQGLRAGSFFYPGGNVTYQGVAVTRSRKEGIAHNYKNETEWRANIDTVMAWFTEEDLDLVTLYFGEPDSTGHRYGPESPERREMVRQVDRTVGYLRESIARNHLTDRLNLIITSDHGMTTVDKRAGDLVEFHKFPNFTFRDIEFELLDYGPNGMLLPKEGRLEKVYDALKDAHPKLHVYKKEAFPEAFHYANNPRVTPLLMYSDLGYVIHGRINVQFNNGEHGFDNKDMDMKTIFRAVGPSFRAGLEVEPFESVHVYELMCRLLGIVPEANDGHLATLLPMLHTESALPPDGRPTLLPKGRSALPPSSRPLLVMGLLGTVILLSEVA	failed
MRGRIMSTFTTISSDKLARLIGTANAPVLIDVRTEEDFAADRRLIPGSIRLSHENVPDWGAAFAGRSVIVSCLRGAKLAQGTAAWLRQLGVQAETLDGGFEGWKEAKLPLLDTRKLPPRDAKGRTVWVTRARPKVDRIACPWLIRRFVDPNAVFLYVAPSEVVAVGERFNAAPFDIENVFWSHRGELCTFDVMIEEFGIATPALLRLATLVRGADTARPDLAPEAPGLLAASLGLSRMYDDDLEQLEAGLLLYDAFYRWCRDATAETHNWPTNKVKA	failed
MRGTTDEEDGVMNFSDVLMMSDDVLSSGEVEEDSFGFRFTGNDAPQMLCFGGGNQNDTDLLFSQPSFSPASPLSSRNNACVVNDQSFRSNKKTGSADGHDRVCDPKPGKRCKRDQKKSSLGNAKDDEDTGEVNPTMKVKELRSNGLCLVPLAWTVHVANTNGADLWSSAILSPLTSHTNSEPVEIVEVKSHKDK	failed
MRGVRLLAVIGLVLGGLVLSGRPAQAQYAQDSLAFDLEHVFDLEYAADPQISPSGDRVVYARTVMDKMDDRRASRLWAVNADGSGHRPITAPETNASQPRWSPSGDRVAYVASTEGDGAEVFVRWMDTGQTARITQLEESPSGLSWGPEGDRLAFSMFVPAEPEPFARMPSPPEGADWAERPDVIDQTYYRSDGGGYTERGHTQLFVVSASGGTPRQITTGPYDHGGAPTWTPDGETLLISANRHADRRLDPLNTEVYAVDVASGAVTALTTRQGPDGDVALSPDGSTIAYTGFDDREQGYQVTKLYVMDRDGTNARLLTEGFDRDVQNPTFTADGEHIVFRYVDEGSTKIGRVALDGGRRVVAEHVGGTSIGRPYTSGSFSLASNGRVAFTHATPQRPADVAVAQAGREAQVLTALNDDLFGQVDLGSVEQITYESSHDGRTIEGWIVTPPGFDASQEYPLVLEIHGGPFASYGPYFSAEVQLYAAAGYVVLYTNPRGSTSYGQDFGNAIHHDYPGHDYDDLMSGVDAVLERGYVDADRLYVTGGSGGGVLTSWIVGHTDRFRAAVAAKPVINWYSWALTADMYPYGVKYWFPGLPWNHEEHYMDRSPLSYVDNVTTPTMLLTGANDYRTPMSESEQFYQALKLREVETALVRVPGASHSIAARPSHLAAKAAHVLEWFRRHGGPTPEQ	failed
